Data on 3 molecules can be found in patent publication US20220315661A1 (Genmab, published 2022).

Test [1] deals with T1, kDR5ECDdelHis (human).
T1 construct: DR5ECDdelHis in which the DR5 signal peptide (aa 1-57) is replaced by that of Kappa 2F8; C-terminal His tag; also called soluble recombinant extracellular domain of human DR5; human recombinant DR5
T1 chain: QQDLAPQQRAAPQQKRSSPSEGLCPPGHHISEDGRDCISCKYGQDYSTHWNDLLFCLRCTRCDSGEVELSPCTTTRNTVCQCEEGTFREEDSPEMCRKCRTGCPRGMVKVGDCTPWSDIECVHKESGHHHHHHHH
Put plainly: Bio-Layer Interferometry (Octet HTX), antibody on AHC biosensor, kDR5ECDdelHis in solution, n = 2.

For test [2], the target named is DR5sh79-115ECDdel-FcRbHisCtag (human, with aa 79-115 replaced by the …). Put plainly: ELISA, DR5 fusion protein captured by penta-his antibody. In general terms: ELISA stands for enzyme-linked immunosorbent assay.
The target in test [3] is T2, Cyno DR5Mfdel-K420N (cynomolgus monkey DR5 with deletion of aa 185-213 and K420N), expressed on CHO-S cells (cynomolgus monkey).
T2 construct: includes the signal peptide; also called CHO-S cells expressing cynomolgus monkey DR5
T2 chain: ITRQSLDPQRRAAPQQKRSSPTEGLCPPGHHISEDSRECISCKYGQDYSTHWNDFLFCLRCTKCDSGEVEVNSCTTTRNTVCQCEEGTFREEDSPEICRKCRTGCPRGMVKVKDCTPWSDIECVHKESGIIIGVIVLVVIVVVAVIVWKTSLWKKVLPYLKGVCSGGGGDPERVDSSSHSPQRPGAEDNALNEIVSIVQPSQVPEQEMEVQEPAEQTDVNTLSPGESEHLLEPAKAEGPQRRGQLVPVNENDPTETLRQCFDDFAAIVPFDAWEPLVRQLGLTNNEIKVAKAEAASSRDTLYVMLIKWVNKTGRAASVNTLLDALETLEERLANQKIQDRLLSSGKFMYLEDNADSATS
As to the kind of experiment: flow cytometry on CHO-S cells expressing cynomolgus monkey DR5, average n = 4 (SD). (In general: Flow cytometry measures light scatter and fluorescence of single cells or particles in a stream.)

Test [4] has as its target T1, kDR5ECDdelHis. As to the kind of experiment: Bio-Layer Interferometry (Octet HTX), antibody on AHC biosensor, kDR5ECDdelHis in solution, n = 3.
The target in a further test is T3, DR5ECD-FcRbHisCtag (human).
T3 construct: also called fully human DR5 antigen; extracellular domain of human DR5 natural variant P32L
As to the kind of experiment: ELISA, DR5 fusion protein captured on a penta-His antibody coat, detection with HRP goat anti-human IgG F(ab')2, OD 405 nm.

Test [5] concerns the target T4, DR5sh139-166ECDdel-FcRbHisCtag (human, with aa 139-166 replaced by the …).
T4 chain: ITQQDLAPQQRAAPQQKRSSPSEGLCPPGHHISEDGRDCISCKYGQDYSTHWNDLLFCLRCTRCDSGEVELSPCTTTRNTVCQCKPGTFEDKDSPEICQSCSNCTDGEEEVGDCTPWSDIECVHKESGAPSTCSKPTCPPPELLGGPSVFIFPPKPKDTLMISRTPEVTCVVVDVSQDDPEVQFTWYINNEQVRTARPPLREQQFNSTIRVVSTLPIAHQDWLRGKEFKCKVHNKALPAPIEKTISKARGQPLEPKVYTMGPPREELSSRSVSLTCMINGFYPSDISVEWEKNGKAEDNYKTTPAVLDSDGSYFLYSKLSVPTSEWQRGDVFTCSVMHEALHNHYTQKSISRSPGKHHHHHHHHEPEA
The description is as above.

Another test concerns the target T5, Murine DR5 (mouse, UniProt Q9QZM4 53-381, limits assumed).
T5 construct: also called mouse DR5; Murine DRS (Uniprot Q9QZM4)
Put plainly: flow cytometry (FIG. 3D).

Where “and” joins values, the source holds several entries; their conditions need not be identical. Identical values can stand only once.

T5 sequence (Q9QZM4 53-381 limits assumed): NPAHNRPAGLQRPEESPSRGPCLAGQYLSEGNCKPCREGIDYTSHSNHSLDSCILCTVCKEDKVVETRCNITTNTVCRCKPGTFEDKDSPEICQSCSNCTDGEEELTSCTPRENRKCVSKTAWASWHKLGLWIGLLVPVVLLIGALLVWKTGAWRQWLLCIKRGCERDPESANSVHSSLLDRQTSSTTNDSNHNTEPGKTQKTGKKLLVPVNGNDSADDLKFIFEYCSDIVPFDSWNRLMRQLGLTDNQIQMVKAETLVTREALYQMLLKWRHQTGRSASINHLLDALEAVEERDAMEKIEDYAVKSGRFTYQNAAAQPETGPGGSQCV

B1: IgG1-hDR5-05 (antibody)
heavy: not shown
light: DIQLTQSPSSLSASVGDRVTITCSASSSVSYMYWYQQKPGKAPKPWIYRTSNLASGVPSRFSGSGSGTDFTLTISSLQPEDFATYYCQQYHSYPPTFGGGTKVEIKRTVAAPSVFIFPPSDEQLKSGTASVVCLLNNFYPREAKVQWKVDNALQSGNSQESVTEQDSKDSTYSLSSTLTLSKADYEKHKVYACEVTHQGLSSPVTKSFNRGEC
notes: Humanized IgG1,kappa without the E430G mutation; also called WT counterpart of IgG1-hDR5-05-E430G
For orientation: Kd means the concentration at which binding is half-saturated. Molecule B1 showed a Kd with kDR5ECDdelHis [1] of 0.0285 µM.

B2: IgG1-hDR5-05-E430G (antibody)
heavy: not shown
light: DIQLTQSPSSLSASVGDRVTITCSASSSVSYMYWYQQKPGKAPKPWIYRTSNLASGVPSRFSGSGSGTDFTLTISSLQPEDFATYYCQQYHSYPPTFGGGTKVEIKRTVAAPSVFIFPPSDEQLKSGTASVVCLLNNFYPREAKVQWKVDNALQSGNSQESVTEQDSKDSTYSLSSTLTLSKADYEKHKVYACEVTHQGLSSPVTKSFNRGEC
notes: Humanized IgG1,kappa with E430G (Eu numbering); also called IgG1-DR5-05-E430G; HC hDR5-05-E430G / LC hDR5-05
What is called EC50 is the concentration giving half of the maximal effect. What is called EC50 (read off the curve) is the midpoint of the concentration-response curve. For B2, the binding result in test [2] is reported as “no binding (tested: range 0.46-1,000 ng/mL)”. For the same molecule, the concentration for a half-maximal effect (EC50) in test [3] is 0.17 µg/mL and 1.16 nM. The Kd in the test with kDR5ECDdelHis [4] turned out to be 0.0271 µM. Moreover, the “EC50 (read off the curve)” value (in the test with DR5ECD-FcRbHisCtag; in test [5]) was approximately 0.02 mg/L each time.

B3: IgG1-hDR5-05-F405L (antibody)
heavy: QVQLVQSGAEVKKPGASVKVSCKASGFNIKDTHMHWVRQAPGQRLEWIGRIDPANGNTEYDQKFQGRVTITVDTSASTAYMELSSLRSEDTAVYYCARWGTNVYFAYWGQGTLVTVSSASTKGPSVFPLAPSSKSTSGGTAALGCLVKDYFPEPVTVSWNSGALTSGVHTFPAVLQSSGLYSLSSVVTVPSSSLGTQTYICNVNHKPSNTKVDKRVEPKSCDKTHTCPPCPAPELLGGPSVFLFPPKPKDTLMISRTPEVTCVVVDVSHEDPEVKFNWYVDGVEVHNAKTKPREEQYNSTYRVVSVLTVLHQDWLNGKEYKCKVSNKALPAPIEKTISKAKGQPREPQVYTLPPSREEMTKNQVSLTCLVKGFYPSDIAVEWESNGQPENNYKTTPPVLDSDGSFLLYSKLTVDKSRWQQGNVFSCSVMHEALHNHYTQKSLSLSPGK
light: DIQLTQSPSSLSASVGDRVTITCSASSSVSYMYWYQQKPGKAPKPWIYRTSNLASGVPSRFSGSGSGTDFTLTISSLQPEDFATYYCQQYHSYPPTFGGGTKVEIKRTVAAPSVFIFPPSDEQLKSGTASVVCLLNNFYPREAKVQWKVDNALQSGNSQESVTEQDSKDSTYSLSSTLTLSKADYEKHKVYACEVTHQGLSSPVTKSFNRGEC
notes: Humanized IgG1,kappa with F405L; also called HC hDR5-05-F405L / LC hDR5-05
B3: the binding result in the test with Murine DR5 is listed as “no binding”.
